Laboratory results: patent US20220064272A1
pEC50: −log10 of the molar value.

Tests used:
[1] = biological target: TauC3 (C-terminally truncated tau fragment ending at aspartate 421 of htau40) (human) (UniProt P10636); test: binding ELISA on coated TauC3, OD650; left table (HC variants); isotype control
[2] = biological target: TauC3 (C-terminally truncated tau fragment ending at aspartate 421 of htau40) (human) (UniProt P10636); test: binding ELISA on coated TauC3, OD650; right table (HM variants); isotype control

Sequence of TauC3 (C-terminally truncated tau fragment ending at aspartate 421 of htau40) (human) (P10636 other isoform, or with tags, fused parts or gaps): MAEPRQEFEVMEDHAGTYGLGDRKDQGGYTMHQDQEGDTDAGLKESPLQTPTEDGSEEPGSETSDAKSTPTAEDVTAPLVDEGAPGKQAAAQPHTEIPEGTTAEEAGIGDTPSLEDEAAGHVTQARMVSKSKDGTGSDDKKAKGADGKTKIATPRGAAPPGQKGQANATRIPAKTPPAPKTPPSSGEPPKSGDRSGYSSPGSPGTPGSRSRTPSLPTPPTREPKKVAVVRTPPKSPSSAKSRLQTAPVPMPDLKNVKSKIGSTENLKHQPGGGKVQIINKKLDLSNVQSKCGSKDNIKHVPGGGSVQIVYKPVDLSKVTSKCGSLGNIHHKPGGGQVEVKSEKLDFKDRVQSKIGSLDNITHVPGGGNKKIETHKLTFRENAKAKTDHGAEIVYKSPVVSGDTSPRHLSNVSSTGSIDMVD

pEC50 [1]: 7.81
pEC50 [2]: 7.81
Substance: isotype control antibody
